Test results as given in FireProtDB (doi:10.1021/bi701365e).
Several values for one entry are separate records, joined by “and”; a condition that tells them apart may be missing. Equal entries are not always repeated.

Conditions: Helicobacter pylori (strain ATCC 700392 / 26695), pH 9, Thermal, EPPS 50 mM, reversible: Yes (>80%), whole UniProt chain shown

B1: Flavodoxin wild type, O25776 (protein)
chain: MGKIGIFFGTDSGNAEAIAEKISKAIGNAEVVDVAKASKEQFNSFTKVILVAPTAGAGDLQTDWEDFLGTLEASDFATKTIGLVGLGDQDTYSETFAEGIFHIYEKAKAGKVVGQTPTDGYHFEASKAVEGGKFVGLVIDEDNQDDLTDERISKWVEQVKGSFA
- unfolding enthalpy (van 't Hoff) (DSC, transition: 3): 29 kcal/mol and 50 kcal/mol
- unfolding enthalpy (van 't Hoff) (Fluorescence, transition: 4): 44 kcal/mol
